Test results published in patent US20100129344A1, “MEDICAL USES AND THERAPIES BASED UPON THE ACTION OF AZUROCIDIN ON IGFBP-1” (priority 2005, published 2010).

Experiments:
IGF-I = IGF-I (Homo sapiens, UniProt P05019); details: IGFBP-1 purified from amniotic fluid; cited from earlier work
IGF-II = IGF-II (Homo sapiens, UniProt P01344); details: IGFBP-1 purified from amniotic fluid; cited from earlier work
IGFBP-1 = target: T1, IGFBP-1 (Homo sapiens, UniProt P08833); assay: Azurocidin-dependent IGFBP-1 protease activity (SDS-PAGE, ECL or silver staining); type: biochemical
T1 construct: purchased Kabi Pharmacia (Sweden), donated
T1 sequence (P08833 26-259): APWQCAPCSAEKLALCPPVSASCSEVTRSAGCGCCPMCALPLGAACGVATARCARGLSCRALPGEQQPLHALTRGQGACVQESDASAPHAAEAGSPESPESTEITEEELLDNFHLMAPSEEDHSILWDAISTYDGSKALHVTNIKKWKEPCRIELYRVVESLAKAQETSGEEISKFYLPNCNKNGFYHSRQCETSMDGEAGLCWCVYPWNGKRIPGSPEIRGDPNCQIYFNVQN
Protocol: Recombinant phosphorylated IGFBP-1 was used as substrate and incubations were carried out under neutral conditions for 2 h at 37 C. IGFBP-1 fragments were separated on SDS-PAGE, and detected by ECL as described in the methods. Panel A: Incubations with 0.25 μL eluate (HE) from heparin affinity chromatography (50 μl urine equiv.) in the presence and absence of anti-azurocidin antibody; and 1 μl HE of the loading material (L), and the flow through after affinity chromatography on protein G columns without (G) and with bound anti-chymase (C) or anti-azurocidin (A) antibodies. Panel B: Incubations in the presence and absence of 25 ng anti-azurocidin antibody with increasing volumes of white cell extract from the individual with a specific IGFBP-1 protease in urine compared to the white cell extract pooled from 6 healthy subjects;
Recombinant IGFBP-1 was incubated with the eluate from heparin affinity chromatography (HE) with a ratio of azurocidin:BP-1 of 1:3,500. After the times indicated, proteins were detected by silver staining after SDS-PAGE;
Gels were fixed, dried and analysed with the Fuji PhosphoImage program (Fuji Co., Stockholm, Sweden). Biotinylated IGFBP-1 and its fragments were separated on 14% SDS-PAGE under reducing conditions, transferred to PVDF (Biorad, Sundbyberg, Sweden), incubated with neutravidin-horseradish peroxidase (Pierce Biotechnology Inc, Rochester, Ill.) and detected by ECL (Amersham Biosciences, Uppsala, Sweden). Silver staining of proteins and fragments was performed after denaturing 12% PAGE under reducing conditions (SilverQuest and NuPAGE, Invitrogen, Stockholm, Sweden).
Heparin affinity chromatography was carried out in batches using heparin-agarose gel (Pharmacia). Urine was diluted 1:5 in 10 mM sodium phosphate, with 0.25 M NaCl buffer, pH 7 and incubated with gel for 30 min at 4 C. The gel was transferred to a column and washed with 10 times the gel volume of buffer. Heparin binding proteins were eluted in loading buffer containing 2M NaCl and the eluate was desalted, concentrated using a 10 kDa spin column and stored at −80 C. Concentrated material derived from 700 ml urine were applied to C4 reverse-phase HPLC, in 0.1% TFA on an acetonitrile gradient of 0-100%. Immunoaffinity chromatography was performed using monoclonal anti-azurocidin antibody attached to protein G Sepharose (Sigma-Aldrich, Sweden). In brief, antibody bound gel was incubated with the eluate from heparin affinity chromatography for 2 h at 22 C, and transferred to a Bio-Spin chromatography column (BioRad). The flow-through was collected for analysis of protease activity. As controls, an additional column was prepared with a monoclonal antibody against human mast cell chymase and a second column with no bound antibody.

monocyte = details: cited from earlier work
[1] = pH increased from 5.5 to 6.5; cited from earlier work

Chain of IGF-I (P05019 49-118): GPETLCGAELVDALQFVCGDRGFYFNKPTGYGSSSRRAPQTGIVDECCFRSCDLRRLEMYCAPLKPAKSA
Chain of IGF-II (P01344 25-91): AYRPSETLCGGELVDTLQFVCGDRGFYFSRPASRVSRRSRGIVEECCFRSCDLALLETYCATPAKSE

B1: IGFBP-1 purified from amniotic fluid: 28 kDa IGF-binding protein purified from human amniotic fluid (protein, UniProt P08833 26-259, looked up)
Insulin-like growth …: APWQCAPCSAEKLALCPPVSASCSEVTRSAGCGCCPMCALPLGAACGVATARCARGLSCRALPGEQQPLHALTRGQGACVQESDASAPHAAEAGSPESPESTEITEEELLDNFHLMAPSEEDHSILWDAISTYDGSKALHVTNIKKWKEPCRIELYRVVESLAKAQETSGEEISKFYLPNCNKNGFYHSRQCETSMDGEAGLCWCVYPWNGKRIPGSPEIRGDPNCQIYFNVQN
- association constant for IGF-I (IGF-I): approximately 6.6×10^9 L/mol
- association constant for IGF-II (IGF-II): ~3.2e+09 L/mol

B2: azurocidin: protein from granules of human polymorphonuclear leukocytes, SEQ ID NO. 1; identified here as IGFBP-1 specific protease (protein, listed as Homo sapiens)
chain: IVGGRKARPRQFPFLASIQNQGRHFCGGALIHARFVMTAASCFQSQNPGVSTVVLGAYDLRRRERQSRQTFSISSMSENGYDPQQNLNDLMLLQLDREANLTSSVTILPLPLQNATVEAGTRCQVAGWGSQRSGGRLSRFPRFVNVTVTPEDQCRPNNVCTGVLTRRGGICNGDGGTPLVCEGLAHGVASFSLGPCGRGPDFFTRVALFRDWIDGVLNNPGPGPA
- pH above which action on IGFBP-1 is greater (IGFBP-1): > 6
- effect on IGFBP-1 (proteolysis) after HPLC-passage (IGFBP-1; after reverse-phase HPLC): without effect
- time until proteolysis of phosphorylated IGFBP-1 is seen (IGFBP-1; protease:substrate molar ratio 1:3,500): within minutes
- concentration at which proteolytic effect on IGFBP-1 is noticeable (IGFBP-1; purified preparation): nanomolar
- concentration level required for monocyte chemotaxis (monocyte): micromolar
- decrease of bactericidal activity [1]: at least 50%
